# Laboratory results published in patent publication US12624118B2, “Trispecific binding molecules against BCMA and uses thereof” (Novartis AG, priority 2019, dated 2026).
# T1: recombinant human CD2 (Homo sapiens, UniProt P06729)
# T1 construct: transiently produced and purified from HEK293 cells along with the CD2 extracellular domain; made in house; host or cells: HEK293 / HEK293F cells (transient expression)
# T1 sequence (P06729 with tags, fused parts or gaps): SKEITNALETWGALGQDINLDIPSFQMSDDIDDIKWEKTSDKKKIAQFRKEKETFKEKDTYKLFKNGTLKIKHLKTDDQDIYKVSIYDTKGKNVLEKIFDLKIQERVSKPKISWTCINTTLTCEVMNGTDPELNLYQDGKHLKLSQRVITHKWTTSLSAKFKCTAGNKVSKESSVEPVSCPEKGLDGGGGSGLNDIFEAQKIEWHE
# Legend:
# [1] = target: T1, recombinant human CD2; test: Isothermal calorimetry (ITC) binding affinity of CD58 variants; settings: recombinant human CD2 (100 μM) titrated into 10 μM CD58 variant in HBS, apparent KD
# Procedure: To ensure the binding affinity remained uncompromised by the additional of the stabilizing disulfide variance, isothermal calorimetry (ITC) was performed on the resulting recombinant CD58 proteins to determine their apparent KD and binding stoicheometry (n) to recombinant human CD2.
# Briefly, recombinant human CD2 and recombinant human CD58 variants were dialyzed into HEPES-buffered saline (HBS). CD2 was diluted to final concentration of 100 μM, CD58 variants were diluted to 10 μM. CD2 was titrated into 10 μM of CD58 variants via multiple injections and ΔH (kcal/mole) determined using a MicroCal VP-ITC isothermal titration calorimeter (Malvern). Titrations of CD2 into HBS were used as a reference and KD and n determined from the resulting data.
# [2] = Thermal stability by differential scanning calorimetry (DSC); type: physicochemical; settings: HBS, 0.5 mg/mL; 25° C. to 100° C. at 1° C./minute
# Procedure: For DSC, all samples were dialyzed into HEPES-buffered saline (HBS) and diluted to final concentration of 0.5 mg/mL. Tm and Tonset were determined using a MicroCal VP-Capillary DSC system (Malvern) by increasing temperature from 25° C. to 100° C. at 1° C./minute with a filtering period of 2 seconds and a mid-gain setting.
# [3] = Thermal stability by differential scanning fluorimetry (DSF); type: physicochemical; settings: Sypro Orange; 25° C. to 95° C. at 0.5° C./minute
# Procedure: Disulfide stabilized variants were assessed for improved thermal stability using both differential scanning calorimetry (DSC) and differential scanning fluorimetry (DSF) using standard techniques. For DSF, 1-3 ug of each construct was add to 1× Sypro Orange (Thermo-Fisher) in 25 ul total volume in 96-well PCR plate. Using a Bio-Rad CFX96 RT-PCR system equipped with C1000 Thermal Cycler, the temperature was increased from 25° C. to 95° C. at 0.5° C./minute and the fluorescence monitored. The manufacturer-supplied software was used to determine Tm.
# [4] = tested on: BCMA+ multiple myeloma cell lines; test: In vitro RTCC assays of anti-BCMA x anti-CD3 bispecific antibodies; type: cell-based; settings: tested as anti-BCMA x anti-CD3 bispecific antibodies having VH and VL sequences of the binder
# Text: (§1) Anti-BCMA x anti-CD3 bispecific antibodies having VH and VL sequences of AB1, AB2, and AB3 were produced.
# [5] = tested on: KMS11-Luc multiple myeloma orthotopic tumor; test: KMS11-Luc multiple myeloma orthotopic tumor model; type: in vivo; settings: tested as anti-BCMA x anti-CD3 bispecific antibodies having VH and VL sequences of the binder; NSG mice
# Text: as §1
Molecule,Kd [1] [nM],Tm (° C.) By Differential Scanning Calorimetry (DSC) [2] [°C],Tmonset (° C.) By Differential Scanning Calorimetry (DSC) [2] [°C],Tm (° C.) By Differential Scanning Fluorimetry (DSF) [3] [°C],activity in in vitro RTCC assays [4],anti-tumor activity [5]
"CD58 Full ECD: recombinant human CD58 full extracellular domain with C-terminal 8×his tag (protein, C-terminal 8xHis tag, recombinant human CD58 full extracellular domain with C-terminal 8×his tag) SQQIYGVVYGNVTFHVPSNVPLKEVLWKKQKDKVAELENSEFRAFSSFKNRVYLDTVSGSLTIYNLTSSDEDEYEMESPNITDTMKFFLYVLESLPSPTLTCALTNGSIEVQCMIPEHYNSHRGLIMYSWDCPMEQCKRNSTSIYFKMENDLPQKIQCTLSNPLFNTTSSIILTTCIPSSGHSRHRGGGGSHHHHHHHH",570,65.0,48.8,59.5,,
"AB3: anti-BCMA binder, AB3 Family, derived from parental PI-61 (antibody, V domains shown) VH: QVQLVESGGGVVQPGRSLRLSCAASGFTVSSYGMHWVRQAPGKGLEWVAVISYTGSNKYYADSVKGRFTISRDNSKNTLYLQMNSLRAEDTAVYYCGGSGYALHDDYYGLDVWGQGTLVTVSS VL: QSALTQPASVSGSPGQSITISCTGTSSDVGGYNYVSWYQQHPGKAPKLMIYDVSNRLRGVSNRFSGSKSGNTASLTISGLQAEDEADYYCSSYTSSSALYVFGSGTKVTVL",,,,,active,anti-tumor activity
IgV V54C_G88C: CD58 domain 1 with V54 and G88 replaced by cysteines to form a disulfide bridge (protein) SQQIYGVVYGNVTFHVPSNVPLKECLWKKQKDKVAELENSEFRAFSSFKNRVYLDTVSCSLTIYNLTSSDEDEYEMESPNITDTMKFFLYVLESGGGGSHHHHHHHH,,80.9,66.7,76.5,,
IgV V45C_M114C: CD58 domain 1 with V45 and M114 replaced by cysteines to form a disulfide bridge (protein) SQQIYGVVYGNVTFHCPSNVPLKEVLWKKQKDKVAELENSEFRAFSSFKNRVYLDTVSGSLTIYNLTSSDEDEYEMESPNITDTCKFFLYVLESGGGGSHHHHHHHH,,72.5,49.6,63.5,,
IgV V45C_M105C: CD58 domain 1 with V45 and M105 replaced by cysteines to form a disulfide bridge (protein) SQQIYGVVYGNVTFHCPSNVPLKEVLWKKQKDKVAELENSEFRAFSSFKNRVYLDTVSGSLTIYNLTSSDEDEYECESPNITDTMKFFLYVLESGGGGSHHHHHHHH,,66.8,43.9,48.5,,
"CD58_IgV: IgV domain (domain 1) of human CD58, without stabilizing disulfide (protein) SQQIYGVVYGNVTFHVPSNVPLKEVLWKKQKDKVAELENSEFRAFSSFKNRVYLDTVSGSLTIYNLTSSDEDEYEMESPNITDTMKFFLYVLESGGGGSHHHHHHHH",,60.9,46.3,48.5,,
